{"source": "patent US20160039904A1", "about": "“STABILIZED SINGLE HUMAN CD4 DOMAINS AND FUSION PROTEINS” (priority 2013, published 2016)", "key": {"[1]": {"biological_target": "HIV-1 Env of isolate CNE59 (HIV-1)", "assay": "cell-based or functional assay"}, "[2]": {"biological_target": "HIV-1 Env of isolate CH70 (HIV-1)", "assay": "cell-based or functional assay"}, "[3]": {"biological_target": "HIV-1 Env of isolate CNE55 (HIV-1)", "assay": "cell-based or functional assay"}, "[4]": {"biological_target": "HIV-1 Env of isolate CNE107 (HIV-1)", "assay": "cell-based or functional assay"}, "[5]": {"biological_target": "HIV-1 Env of isolate CNE64 (HIV-1)", "assay": "cell-based or functional assay"}, "[6]": {"biological_target": "HIV-1 Env of isolate CNE7 (HIV-1)", "assay": "cell-based or functional assay"}, "[7]": {"biological_target": "HIV-1 Env of isolate CNE46 (HIV-1)", "assay": "cell-based or functional assay"}, "[8]": {"biological_target": "HIV-1 Env of isolate Bal.EC1 TC (HIV-1)", "assay": "cell-based or functional assay"}, "[9]": {"biological_target": "HIV-1 Env of isolate CNE40 (HIV-1)", "assay": "cell-based or functional assay"}, "[10]": {"biological_target": "HIV-1 Env of isolate CNE4 (HIV-1)", "assay": "cell-based or functional assay"}, "[11]": {"biological_target": "HIV-1 Env of isolate CNE49 (HIV-1)", "assay": "cell-based or functional assay"}, "[12]": {"biological_target": "gp140Con-s (HIV-1)", "assay": "ELISA (OD 450 nm) on Cons gp140 (gp140Con-s), sCD4Fc titrated [A]"}}, "data": [{"substance": "D1D2Fc (from UniProt P01730 26-203) (Fc fusion)", "values": [{"measurement": "neutralization IC50", "setting": "[1]", "value": 10, "unit": "nM"}, {"measurement": "neutralization IC90", "setting": "[1]", "value": 220, "unit": "nM"}, {"measurement": "neutralization IC50", "setting": "[2]", "value": 7.3, "unit": "nM"}, {"measurement": "neutralization IC90", "setting": "[2]", "value": 109, "unit": "nM"}, {"measurement": "neutralization IC50", "setting": "[3]", "value": 213, "unit": "nM"}, {"measurement": "neutralization IC90", "setting": "[3]", "value": "> 250", "unit": "nM"}, {"measurement": "neutralization IC50", "setting": "[4]", "value": 135, "unit": "nM"}, {"measurement": "neutralization IC90", "setting": "[4]", "value": "> 250", "unit": "nM"}, {"measurement": "neutralization IC50", "setting": "[5]", "value": 12, "unit": "nM"}, {"measurement": "neutralization IC90", "setting": "[5]", "value": 113, "unit": "nM"}, {"measurement": "neutralization IC50", "setting": "[6]", "value": 19, "unit": "nM"}, {"measurement": "neutralization IC90", "setting": "[6]", "value": 161, "unit": "nM"}, {"measurement": "neutralization IC50", "setting": "[7]", "value": 99, "unit": "nM"}, {"measurement": "neutralization IC90", "setting": "[7]", "value": "> 250", "unit": "nM"}, {"measurement": "IC50, neutralization in TZM-bl cell-based assay", "setting": "[8]", "value": 0.6, "unit": "nM"}, {"measurement": "neutralization IC50", "setting": "[9]", "value": 0.06, "unit": "nM"}, {"measurement": "neutralization IC90", "setting": "[9]", "value": 0.5, "unit": "nM"}, {"measurement": "neutralization IC50", "setting": "[10]", "value": 3.9, "unit": "nM"}, {"measurement": "neutralization IC90", "setting": "[10]", "value": 24, "unit": "nM"}, {"measurement": "neutralization IC50", "setting": "[11]", "value": 21, "unit": "nM"}, {"measurement": "neutralization IC90", "setting": "[11]", "value": 224, "unit": "nM"}, {"measurement": "EC50 (read off the curve)", "setting": "[12]", "value": 1, "unit": "nM"}]}]}
